T1: Human membrane IL-6R on cells (human, UniProt P08887 20-468)
T1 sequence (looked up): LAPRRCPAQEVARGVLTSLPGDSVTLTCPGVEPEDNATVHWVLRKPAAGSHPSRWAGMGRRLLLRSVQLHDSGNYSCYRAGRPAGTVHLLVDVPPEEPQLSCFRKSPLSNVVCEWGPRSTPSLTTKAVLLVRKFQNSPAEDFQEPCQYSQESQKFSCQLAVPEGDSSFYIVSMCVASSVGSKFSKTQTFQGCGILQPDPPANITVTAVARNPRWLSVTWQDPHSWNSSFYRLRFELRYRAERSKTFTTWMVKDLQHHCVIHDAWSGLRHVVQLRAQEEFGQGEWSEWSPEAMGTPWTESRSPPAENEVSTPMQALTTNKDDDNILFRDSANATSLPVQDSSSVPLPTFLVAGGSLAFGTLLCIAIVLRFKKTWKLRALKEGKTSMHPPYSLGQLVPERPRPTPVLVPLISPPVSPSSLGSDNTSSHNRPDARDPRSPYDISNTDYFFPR

T2: Mouse IL-6R (mouse, UniProt P22272 20-364, limits assumed)
T2 construct: also called mouse sIL-6R
T2 sequence (looked up): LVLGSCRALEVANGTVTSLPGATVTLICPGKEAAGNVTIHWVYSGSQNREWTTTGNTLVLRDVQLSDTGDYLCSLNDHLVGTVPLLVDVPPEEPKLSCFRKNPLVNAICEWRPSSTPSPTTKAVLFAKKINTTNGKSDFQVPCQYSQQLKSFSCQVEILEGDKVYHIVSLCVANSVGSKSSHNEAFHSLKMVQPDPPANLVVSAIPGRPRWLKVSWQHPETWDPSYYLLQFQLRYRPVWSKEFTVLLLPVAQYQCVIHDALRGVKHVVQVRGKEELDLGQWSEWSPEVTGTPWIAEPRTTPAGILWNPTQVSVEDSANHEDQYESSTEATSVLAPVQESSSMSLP

T3: Cyno plasma sIL-6R (cynomolgus monkey, UniProt A0A2K5WN54 60-396)
T3 construct: also called cynomolgus sIL-6R
T3 sequence: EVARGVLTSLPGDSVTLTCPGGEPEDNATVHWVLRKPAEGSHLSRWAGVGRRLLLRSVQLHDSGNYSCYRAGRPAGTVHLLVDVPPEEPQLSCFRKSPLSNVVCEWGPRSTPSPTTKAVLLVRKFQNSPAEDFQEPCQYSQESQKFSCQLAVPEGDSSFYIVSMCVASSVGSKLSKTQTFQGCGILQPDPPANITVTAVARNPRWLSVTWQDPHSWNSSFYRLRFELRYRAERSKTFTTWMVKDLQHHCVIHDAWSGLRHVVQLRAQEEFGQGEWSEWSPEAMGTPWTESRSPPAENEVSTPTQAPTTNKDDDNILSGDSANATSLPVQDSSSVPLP

T4: Human plasma sIL-6R (human, UniProt P08887 20-355, limits assumed)
T4 construct: also called plasma-derived human IL-6R
T4 sequence (looked up): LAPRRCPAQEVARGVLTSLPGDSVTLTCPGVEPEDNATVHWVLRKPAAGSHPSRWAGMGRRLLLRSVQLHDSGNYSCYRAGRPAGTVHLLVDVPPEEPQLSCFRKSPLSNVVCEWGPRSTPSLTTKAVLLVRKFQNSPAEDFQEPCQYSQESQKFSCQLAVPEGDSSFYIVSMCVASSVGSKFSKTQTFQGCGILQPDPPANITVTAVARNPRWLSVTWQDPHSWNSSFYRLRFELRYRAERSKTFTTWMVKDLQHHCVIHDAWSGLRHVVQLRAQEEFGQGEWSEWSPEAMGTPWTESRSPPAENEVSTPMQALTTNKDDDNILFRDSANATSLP

B1: IL6R06 (VHH)
VHH: EVQLVESGGGLVQAGGSLRLSCAASGNIFDDNTMGWTWNRQPPGKQRELVAIIATDGSTNYADSVKGRFTISRDNAKNTVYLQMNSLKPEDTAVYYCNLFSLRLGRDYWGQGTQVTVSS
notes: also called PMP32E2; not shown: C-terminal c-myc and (His)6 tags
B2: IL6R01 (VHH)
VHH: EVQLVESGGGLVQPGGSLRLSCAASGFPLDYYAIGWFRQAPGKEREGVSCISSSDGSTYYADSVKGRFTISRDNAKNTVYLQMNSLKPEDTAVYYCALVHTTAQATGVPQREYEYEWWGQGTQVTVSS
notes: also called PMP28E11; not shown: C-terminal c-myc and (His)6 tags
B3: IL6R02 (VHH)
VHH: EVQLVESGGGLVQAGGSLRLSCAASGRTFSSYDMGWYRQAPGKEREFVAVISRSGSSTYYADSVKGRFTISRDNAKNTVYLQMNSLKPEDTAIYYCKAEVVAGDYDYWGQGTQVTVSS
notes: also called PMP30C11; not shown: C-terminal c-myc and (His)6 tags
B4: Reference Fab (Fab, V domains shown)
VH: QVQLQESGPGLVRPSQTLSLTCTVSGYSITSDHAWSWVRQPPGRGLEWIGYISYSGITTYNPSLKSRVTMLRDTSKNQFSLRLSSVTAADTAVYYCARSLARTTAMDYWGQGSLVTVSS
VL: DIQMTQSPSSLSASVGDRVTITCRASQDISSYLNWYQQKPGKAPKLLIYYTSRLHSGVPSRFSGSGSGTDFTFTISSLQPEDIATYYCQQGNTLPYTFGQGTKVEIKR
notes: Built from RVLa and RVHf of EP 0628639; expressed in E. coli periplasm
B5: Human soluble IL-6R (receptor, UniProt P08887 20-358, looked up)
chain: LAPRRCPAQEVARGVLTSLPGDSVTLTCPGVEPEDNATVHWVLRKPAAGSHPSRWAGMGRRLLLRSVQLHDSGNYSCYRAGRPAGTVHLLVDVPPEEPQLSCFRKSPLSNVVCEWGPRSTPSLTTKAVLLVRKFQNSPAEDFQEPCQYSQESQKFSCQLAVPEGDSSFYIVSMCVASSVGSKFSKTQTFQGCGILQPDPPANITVTAVARNPRWLSVTWQDPHSWNSSFYRLRFELRYRAERSKTFTTWMVKDLQHHCVIHDAWSGLRHVVQLRAQEEFGQGEWSEWSPEAMGTPWTESRSPPAENEVSTPMQALTTNKDDDNILFRDSANATSLPVQD
notes: Soluble recombinant form; biotinylated in some assays; also called hIL-6R; human IL-6R

Assays:
[1] = target: B5; experiment: summary table C-13 of Nanobody characteristics, Kd on IL-6R
Protocol: (§1) Nanobodies were injected at 5 different concentrations between 1 and 50 nM. Flow rate was 45 μl/min in all experiments. Association and dissociation phase were 3 and 10 min, respectively. The chip was regenerated using Glycine/HCl pH 1.5.

[2] = target: B5; experiment: SPR Biacore 3000, IL-6R amine-coupled to CM5
Protocol: as §1

[3] = target: B5; experiment: competition for IL-6R, competitor reference Fab, summary table C-13
[4] = target: T1, Human membrane IL-6R on cells; experiment: cell-based or functional assay
[5] = target: B5; experiment: SPR Biacore 3000, IL-6R amine-coupled to CM5; first koff listed; a separate determination, not the one behind the Kd
[6] = target: T1, Human membrane IL-6R on cells; experiment: cell-based or functional assay; remark: listed apart in the source
[7] = target: B5; experiment: Alphascreen, 100 nM Nanobody, 0.4 nM bio-IL-6R; competitor: reference Fab
[8] = target: B5; experiment: Biacore off-rate, periplasmic extract
[9] = target: T1, Human membrane IL-6R on cells; experiment: cell-based or functional assay; remark: listed apart in the source
[10] = target: B5; experiment: Alphascreen, inhibition of bio-IL-6 binding to IL-6R
Protocol: (§2) Finally streptavidin donor beads were added and after 1 hour incubator the plate was read on the Envision microplate reader.

[11] = target: B5; experiment: inhibition of the IL-6/IL-6R interaction, summary table C-13
Protocol: as §2

[12] = target: B5; experiment: SPR Biacore 3000, IL-6R amine-coupled to CM5; paired with the second koff of IL6R06 (r17c3)
Protocol: as §1

[13] = target: B5; experiment: summary table C-13 of Nanobody characteristics, Kd on IL-6R; summary table C-13
[14] = target: T2, Mouse IL-6R; experiment: ELISA: plate coated with 1 µg/ml mouse IL-6R, 500 nM Nanobody, anti-myc + anti-mouse-HRP
Protocol: Detection was performed with anti-myc and anti-mouse-HRP as first and second antibody respectively.

[15] = target: B5; experiment: SPR Biacore 3000, IL-6R amine-coupled to CM5; second koff of IL6R02; the one that fits kon and Kd
Protocol: as §1

[16] = target: T2, Mouse IL-6R; experiment: ELISA: plate coated with 1 µg/ml mouse IL-6R; concentration and detection of this control not told
[17] = target: T3, Cyno plasma sIL-6R; experiment: plasma potency ELISA, cyno plasma + human IL-6 50 ng/mL; sIL-6R captured on BN-12, bound IL-6 detected; blocked ligand IL-6
[18] = target: T1, Human membrane IL-6R on cells; experiment: cell-based or functional assay; remark: listed apart in the source
[19] = target: B5; experiment: Alphascreen, inhibition of bio-IL-6 binding to IL-6R; remark: listed apart in the source
Protocol: as §2

[20] = target: T4, Human plasma sIL-6R; experiment: plasma potency ELISA, human plasma, IL-6 at EC50 (50 ng/mL)
[21] = target: T4, Human plasma sIL-6R; experiment: plasma potency ELISA, human plasma + human IL-6 50 ng/mL; sIL-6R captured on BN-12, bound IL-6 detected; blocked ligand IL-6
[22] = target: T4, Human plasma sIL-6R; experiment: plasma potency ELISA, human plasma, IL-6 at EC95 (885 ng/mL)
[23] = target: T5, PMP20A11; experiment: competitive binding ELISA, 0.05 nM IL6R20A11 pre-incubated with sIL-6R, free Nanobody captured on sIL-6R
T5 construct: also called IL6R20A11; IL6R300; not shown: c-myc and (His)6 tags

[24] = target: T5, PMP20A11; experiment: competition ELISA: IL6R20A11 (0.4 nM) pre-incubated with a series of recombinant sIL-6R; free IL6R20A11 captured on biotinylated human sIL-6R on neutravidin

| Kd [1] | koff [2] | Ref Fab competition (%) [3] | IC50 (nM), XG-1 cell proliferation [4] | IC50 (nM) XG-1 [6] | Residual reference-Fab binding to IL-6R (%) [7] | koff [8] | IC50 (nM), TF1 cell proliferation [9] | IC50 [10] | IC50 [11] | Kd [2] | kon [2] | binding result [14] | Binder | further results |
| --- | --- | --- | --- | --- | --- | --- | --- | --- | --- | --- | --- | --- | --- | --- |
| 7.1 nM | 0.00757 s⁻¹ | 36% | 42.1 nM | 42.1 nM | 36% | 0.000886 s⁻¹ | 138 nM | 1.21 nM | 1.21 nM | – | – | – | B1 | koff [5]: 0.000886 s⁻¹; Kd [12]: 7.1 nM; kon [12]: 1.07e+06 M⁻¹ s⁻¹ |
| – | 0.00011 s⁻¹ | 49% | – | – | 49% | – | – | 0.726 nM | 0.73 nM | 0.4 nM | 262000 M⁻¹ s⁻¹ | no binding (tested: 500 nM) | B2 | Kd [13]: 0.4 nM |
| 5.9 nM | 0.00294 s⁻¹ | 86% | 31 nM | 31 nM | 86% | 0.00294 s⁻¹ | 94.7 nM | 1.69 nM | 1.69 nM | 5.9 nM | 840000 M⁻¹ s⁻¹ | no binding (tested: 500 nM) | B3 | koff [15]: 0.00495 s⁻¹ |
| – | – | – | 6 nM | – | – | – | 9.2 nM | – | – | – | – | – | B4 | binding result [16]: no binding (tested: not given); IC50 (read off the curve) [17]: ~0.1 nM; IC50 (nM), TF-1 proliferation at 100 IU/mL IL-6 [18]: 6.26 nM; IC50 [19]: 0.592 nM; IC50 [20]: 0.55 nM; IC50 (read off the curve) [21]: ~0.3 nM; IC50 [22]: 8.47 nM |
| – | – | – | – | – | – | – | – | – | – | – | – | – | B5 | IC50 [23]: 0.03 nM; IC50 (read off the curve) [24]: ~1 ng/mL |

From patent US20120077731A1 (Ablynx, published 2012)
